The record followed here is publication PMC7618375 (2024).

By Kd is commonly meant the equilibrium constant for the complex coming apart. Higher therefore signals weaker binding.

This experiment addresses SETDB1 peptide trimethylated at K1178 (human (by the printed UniProt entry), UniProt Q15047, trimethyl-lysine at 1178). The experiment is described as follows: ITC. (Isothermal titration calorimetry measures the heat released or taken up as one component is titrated into another.)

B1: MPP8 chromodomain (CD, residues 55-116) (domain or fragment)
chain: GEDVFEVEKILDMKTEGGKVLYKVRWKGYTSDDDTWEPEIHLEDCKEVLLEFRKKIAENKAK
As to B1, the Kd was greater than 80 µM.
